Measurements from patent US20260167699A1 (Chugai, published 2026).
Changes are numbered by the printed parent chain.

T1: FcγRIIa(R) (human, UniProt P12318 34-217)
T1 construct: extracellular domain; also called 2aR
T1 sequence: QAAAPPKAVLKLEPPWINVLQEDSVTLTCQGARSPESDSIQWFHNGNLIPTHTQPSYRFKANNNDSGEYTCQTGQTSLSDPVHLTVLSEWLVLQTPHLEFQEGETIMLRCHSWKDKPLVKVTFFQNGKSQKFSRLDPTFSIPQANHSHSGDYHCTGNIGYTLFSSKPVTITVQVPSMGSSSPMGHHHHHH

T2: FcγRIIa(H) (human, UniProt P12318 34-217)
T2 construct: extracellular domain; also called 2aH
T2 sequence: T1 sequence with R134H

T3: FcγRIIb (human, UniProt P31994 43-217)
T3 construct: extracellular domain; also called 2b
T3 sequence: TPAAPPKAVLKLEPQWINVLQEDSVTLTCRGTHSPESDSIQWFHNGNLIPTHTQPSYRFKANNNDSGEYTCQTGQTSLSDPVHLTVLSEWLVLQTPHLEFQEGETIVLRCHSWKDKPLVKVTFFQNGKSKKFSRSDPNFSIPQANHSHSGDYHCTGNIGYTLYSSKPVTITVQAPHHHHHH

B1: GpH7-A5/GpH7-B3 variant S298_11K/GpL16-k0 (antibody, human IgG1, kappa)
heavy 1: not shown
heavy 2: not shown
light: DIVMTQSPLSLPVTPGEPASISCQASESLVHSNRNTYLHWYLQKPGQSPQLLIYKVSNRFSGVPDRFSGSGSGTDFTLKISRVEAEDVGVYYCSQNTHVPPTFGQGTKVEIERTVAAPSVFIFPPSDEQLKSGTASVVCLLNNFYPREAKVQWKVDNALQSGNSQESVTEQDSKDSTYSLSSTLTLSKADYEKHKVYACEVTHQGLSSPVTKSFNRGEC
notes: He Ab: heterodimerized IgG1, one H chain mutated
B2: GpH7-A5/GpH7-B3 variant S298_15Y/GpL16-k0 (antibody, human IgG1, kappa)
heavy 1: not shown
heavy 2: not shown
light: B1 light
notes: as for B1
B3: GpH7-A5/GpH7-B3 variant S324_03V/GpL16-k0 (antibody, human IgG1, kappa)
heavy 1: not shown
heavy 2: not shown
light: B1 light
notes: as for B1
B4: GpH7-A5/GpH7-B3 variant S324_09D/GpL16-k0 (antibody, human IgG1, kappa)
heavy 1: not shown
heavy 2: not shown
light: B1 light
notes: as for B1
B5: GpH7-A5/GpH7-B3 variant S324_10E/GpL16-k0 (antibody, human IgG1, kappa)
heavy 1: not shown
heavy 2: not shown
light: B1 light
notes: as for B1
B6: GpH7-A5/GpH7-B3 variant S324_01G/GpL16-k0 (antibody, human IgG1, kappa)
heavy 1: not shown
heavy 2: not shown
light: B1 light
notes: as for B1
B7: GpH7-A5/GpH7-B3 variant S324_16H/GpL16-k0 (antibody, human IgG1, kappa)
heavy 1: not shown
heavy 2: not shown
light: B1 light
notes: as for B1
B8: GpH7-A5/GpH7-B3 variant S324_11K/GpL16-k0 (antibody, human IgG1, kappa)
heavy 1: not shown
heavy 2: not shown
light: B1 light
notes: as for B1
B9: GpH7-A5/GpH7-B3 variant S298_19Q/GpL16-k0 (antibody, human IgG1, kappa)
heavy 1: not shown
heavy 2: not shown
light: B1 light
notes: as for B1
B10: GpH7-A5/GpH7-B3 variant S324_15Y/GpL16-k0 (antibody, human IgG1, kappa)
heavy 1: not shown
heavy 2: not shown
light: B1 light
notes: as for B1
B11: GpH7-A5/GpH7-B3 variant S324_12R/GpL16-k0 (antibody, human IgG1, kappa)
heavy 1: not shown
heavy 2: not shown
light: B1 light
notes: as for B1
B12: GpH7-A5/GpH7-B3 variant S298_12R/GpL16-k0 (antibody, human IgG1, kappa)
heavy 1: not shown
heavy 2: not shown
light: B1 light
notes: as for B1
B13: GpH7-A5/GpH7-B3 variant Y296_01G/GpL16-k0 (antibody, human IgG1, kappa)
heavy 1: not shown
heavy 2: not shown
light: B1 light
notes: as for B1
B14: GpH7-A5/GpH7-B3 variant S298_16H/GpL16-k0 (antibody, human IgG1, kappa)
heavy 1: not shown
heavy 2: not shown
light: B1 light
notes: as for B1
B15: GpH7-A5/GpH7-B3 variant Y296_03V/GpL16-k0 (antibody, human IgG1, kappa)
heavy 1: not shown
heavy 2: not shown
light: B1 light
notes: as for B1
B16: GpH7-A5/GpH7-B3 variant S324_19Q/GpL16-k0 (antibody, human IgG1, kappa)
heavy 1: not shown
heavy 2: not shown
light: B1 light
notes: as for B1
B17: GpH7-A5/GpH7-B3 variant S324_02A/GpL16-k0 (antibody, human IgG1, kappa)
heavy 1: not shown
heavy 2: not shown
light: B1 light
notes: as for B1
B18: GpH7-A5/GpH7-B3 variant S324_08L/GpL16-k0 (antibody, human IgG1, kappa)
heavy 1: not shown
heavy 2: not shown
light: B1 light
notes: as for B1
B19: GpH7-A5/GpH7-B3 variant Y296_02A/GpL16-k0 (antibody, human IgG1, kappa)
heavy 1: not shown
heavy 2: not shown
light: B1 light
notes: as for B1
B20: GpH7-A5/GpH7-B3 variant S324_18N/GpL16-k0 (antibody, human IgG1, kappa)
heavy 1: not shown
heavy 2: not shown
light: B1 light
notes: as for B1
B21: GpH7-A5/GpH7-B3 variant S298_14T/GpL16-k0 (antibody, human IgG1, kappa)
heavy 1: not shown
heavy 2: not shown
light: B1 light
notes: as for B1
B22: GpH7-A5/GpH7-B3 variant S324_07I/GpL16-k0 (antibody, human IgG1, kappa)
heavy 1: not shown
heavy 2: not shown
light: B1 light
notes: as for B1
B23: GpH7-A5/GpH7-B3 variant S324_06M/GpL16-k0 (antibody, human IgG1, kappa)
heavy 1: not shown
heavy 2: not shown
light: B1 light
notes: as for B1
B24: GpH7-A5/GpH7-B3 variant S324_04F/GpL16-k0 (antibody, human IgG1, kappa)
heavy 1: not shown
heavy 2: not shown
light: B1 light
notes: as for B1

Tests used:
Test in all cases: SPR, relative to GpH7-A5/GpH7-B3/GpL16-k0 =100
[1] = molecular target: T1, FcγRIIa(R)
[2] = molecular target: T2, FcγRIIa(H)
[3] = molecular target: T3, FcγRIIb
[4] = molecular target: T4, FcγRIa (human, UniProt P12314 16-292)
T4 construct: extracellular domain; also called 1a
T4 sequence (P12314 other isoform, or with tags, fused parts or gaps): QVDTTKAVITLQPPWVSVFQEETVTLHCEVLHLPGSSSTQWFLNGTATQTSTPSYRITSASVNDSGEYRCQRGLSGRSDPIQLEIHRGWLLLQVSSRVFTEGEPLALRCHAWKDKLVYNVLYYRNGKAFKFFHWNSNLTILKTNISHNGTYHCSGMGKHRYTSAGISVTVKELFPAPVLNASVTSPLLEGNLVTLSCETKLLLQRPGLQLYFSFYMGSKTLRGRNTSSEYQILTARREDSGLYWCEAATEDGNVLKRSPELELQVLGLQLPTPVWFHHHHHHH

| Binder | He/Con 2aR [1] [%] | He/Con 2aH [2] [%] | He/Con 2b [3] [%] | He/Con 1a [4] [%] |
| --- | --- | --- | --- | --- |
| B1 | 91 | 63.9 | 62.2 | 106 |
| B2 | 75.7 | 71.2 | 62.2 | 104 |
| B3 | 113 | 108 | 128 | 97.7 |
| B4 | 102 | 117 | 112 | 97.7 |
| B5 | 99 | 114 | 101 | 98.9 |
| B6 | 94.4 | 110 | 106 | 93.2 |
| B7 | 105 | 113 | 109 | 106 |
| B8 | 91 | 102 | 89.6 | 96.3 |
| B9 | 90.9 | 88.9 | 74.3 | 106 |
| B10 | 107 | 114 | 115 | 107 |
| B11 | 84 | 107 | 82.4 | 95.9 |
| B12 | 81.6 | 67.4 | 58.6 | 106 |
| B13 | 91.6 | 91.6 | 80.4 | 99.4 |
| B14 | 84.7 | 80.2 | 64.4 | 105 |
| B15 | 92 | 86.9 | 80.4 | 101 |
| B16 | 86.8 | 106 | 87.2 | 106 |
| B17 | 99.9 | 114 | 102 | 96.9 |
| B18 | 110 | 106 | 117 | 97.3 |
| B19 | 93 | 89.1 | 83.1 | 99.8 |
| B20 | 101 | 109 | 106 | 109 |
| B21 | 94.2 | 96.2 | 79 | 104 |
| B22 | 109 | 107 | 125 | 96.2 |
| B23 | 118 | 122 | 126 | 104 |
| B24 | 99.6 | 106 | 99.9 | 103 |
